{"source": "paper PMC7192597", "about": "“Mechanistic insights from structure of Mycobacterium smegmatis topoisomerase I with ssDNA bound to both N- and C-terminal domains”", "key": {"MsmTOP1-701t (D1-D5)": {"biological_target": "T1, MsmTOP1-701t (D1-D5) (Mycobacterium smegmatis mc2 155, UniProt A0R5D9 1-701)", "T1 sequence": "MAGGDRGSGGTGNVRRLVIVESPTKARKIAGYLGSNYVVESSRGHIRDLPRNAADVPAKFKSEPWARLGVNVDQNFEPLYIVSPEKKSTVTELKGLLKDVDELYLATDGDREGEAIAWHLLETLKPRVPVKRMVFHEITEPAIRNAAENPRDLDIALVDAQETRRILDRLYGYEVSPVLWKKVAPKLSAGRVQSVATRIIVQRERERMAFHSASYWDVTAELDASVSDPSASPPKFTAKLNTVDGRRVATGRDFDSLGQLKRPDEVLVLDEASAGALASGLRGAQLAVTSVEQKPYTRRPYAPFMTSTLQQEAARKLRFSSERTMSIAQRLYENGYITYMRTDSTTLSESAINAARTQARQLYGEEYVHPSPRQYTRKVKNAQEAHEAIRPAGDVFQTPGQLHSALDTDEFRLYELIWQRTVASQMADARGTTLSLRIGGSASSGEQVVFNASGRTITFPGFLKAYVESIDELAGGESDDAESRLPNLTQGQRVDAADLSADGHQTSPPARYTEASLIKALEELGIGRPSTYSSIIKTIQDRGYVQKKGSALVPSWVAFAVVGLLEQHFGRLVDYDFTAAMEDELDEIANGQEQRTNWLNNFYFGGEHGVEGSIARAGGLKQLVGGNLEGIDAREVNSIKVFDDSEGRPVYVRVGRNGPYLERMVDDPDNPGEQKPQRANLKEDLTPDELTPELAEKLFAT", "test": "fluorescence anisotropy; no Mg2+, 0.1 mM EDTA; Anisotropy: 50 mM Tris-HCl pH 7.5, 100 mM NaCl, 0.1 mM EDTA, room temperature; crystal: 0.1 M Tris-HCl pH 8.5, 1.5 M lithium sulfate, 16 C, protein:ssDNA 1:2", "conditions": "protein: recombinant; tags: His6-Mocr removed by TEV (N-terminal SNA left); label: 3' 6-carboxyfluorescein; single strand"}, "[1]": {"biological_target": "T2, MsmTOP1 full length (topoisomerase I) (Mycobacterium smegmatis mc2 155, UniProt A0R5D9 1-936)", "T2 sequence": "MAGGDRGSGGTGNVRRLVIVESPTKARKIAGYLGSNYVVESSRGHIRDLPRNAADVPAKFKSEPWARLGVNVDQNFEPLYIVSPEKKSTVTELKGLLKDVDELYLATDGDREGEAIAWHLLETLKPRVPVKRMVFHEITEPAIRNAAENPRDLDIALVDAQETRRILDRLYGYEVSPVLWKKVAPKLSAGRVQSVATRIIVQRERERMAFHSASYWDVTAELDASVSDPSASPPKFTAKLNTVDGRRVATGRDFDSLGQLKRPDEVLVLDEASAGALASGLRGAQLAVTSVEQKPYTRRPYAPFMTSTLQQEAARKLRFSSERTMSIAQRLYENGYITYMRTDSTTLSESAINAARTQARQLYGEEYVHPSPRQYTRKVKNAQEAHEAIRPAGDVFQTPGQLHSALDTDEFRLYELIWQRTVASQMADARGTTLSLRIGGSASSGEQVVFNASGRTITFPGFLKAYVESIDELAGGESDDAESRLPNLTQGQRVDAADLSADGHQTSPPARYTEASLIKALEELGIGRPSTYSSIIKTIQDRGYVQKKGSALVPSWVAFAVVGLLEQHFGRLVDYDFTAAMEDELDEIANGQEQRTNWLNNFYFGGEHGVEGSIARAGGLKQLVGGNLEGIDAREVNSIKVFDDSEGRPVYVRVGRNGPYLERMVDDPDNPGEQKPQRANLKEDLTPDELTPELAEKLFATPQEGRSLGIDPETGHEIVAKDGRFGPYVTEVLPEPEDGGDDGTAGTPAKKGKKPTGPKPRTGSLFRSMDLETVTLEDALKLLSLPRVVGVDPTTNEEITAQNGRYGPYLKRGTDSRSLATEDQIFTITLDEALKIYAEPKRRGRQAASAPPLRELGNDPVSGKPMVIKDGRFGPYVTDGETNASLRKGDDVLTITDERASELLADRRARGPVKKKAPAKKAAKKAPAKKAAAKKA", "test": "fluorescence anisotropy; no Mg2+, 0.1 mM EDTA; Anisotropy: 50 mM Tris-HCl pH 7.5, 100 mM NaCl, 0.1 mM EDTA, room temperature; crystal: 0.1 M Tris-HCl pH 8.5, 1.5 M lithium sulfate, 16 C, protein:ssDNA 1:2", "conditions": "protein: recombinant; tags: His6-Mocr removed by TEV (N-terminal SNA left); label: 3' 6-carboxyfluorescein; single strand"}, "[2]": {"biological_target": "T2, MsmTOP1 full length (topoisomerase I)", "test": "fluorescence anisotropy; Kd could not be determined; no Mg2+, 0.1 mM EDTA; Anisotropy: 50 mM Tris-HCl pH 7.5, 100 mM NaCl, 0.1 mM EDTA, room temperature; crystal: 0.1 M Tris-HCl pH 8.5, 1.5 M lithium sulfate, 16 C, protein:ssDNA 1:2", "conditions": "protein: recombinant; tags: His6-Mocr removed by TEV (N-terminal SNA left); label: 3' 6-carboxyfluorescein; single strand"}, "MsmTOP1-839t (D1-D7)": {"biological_target": "T3, MsmTOP1-839t (D1-D7) (Mycobacterium smegmatis mc2 155, UniProt A0R5D9 1-839)", "T3 sequence": "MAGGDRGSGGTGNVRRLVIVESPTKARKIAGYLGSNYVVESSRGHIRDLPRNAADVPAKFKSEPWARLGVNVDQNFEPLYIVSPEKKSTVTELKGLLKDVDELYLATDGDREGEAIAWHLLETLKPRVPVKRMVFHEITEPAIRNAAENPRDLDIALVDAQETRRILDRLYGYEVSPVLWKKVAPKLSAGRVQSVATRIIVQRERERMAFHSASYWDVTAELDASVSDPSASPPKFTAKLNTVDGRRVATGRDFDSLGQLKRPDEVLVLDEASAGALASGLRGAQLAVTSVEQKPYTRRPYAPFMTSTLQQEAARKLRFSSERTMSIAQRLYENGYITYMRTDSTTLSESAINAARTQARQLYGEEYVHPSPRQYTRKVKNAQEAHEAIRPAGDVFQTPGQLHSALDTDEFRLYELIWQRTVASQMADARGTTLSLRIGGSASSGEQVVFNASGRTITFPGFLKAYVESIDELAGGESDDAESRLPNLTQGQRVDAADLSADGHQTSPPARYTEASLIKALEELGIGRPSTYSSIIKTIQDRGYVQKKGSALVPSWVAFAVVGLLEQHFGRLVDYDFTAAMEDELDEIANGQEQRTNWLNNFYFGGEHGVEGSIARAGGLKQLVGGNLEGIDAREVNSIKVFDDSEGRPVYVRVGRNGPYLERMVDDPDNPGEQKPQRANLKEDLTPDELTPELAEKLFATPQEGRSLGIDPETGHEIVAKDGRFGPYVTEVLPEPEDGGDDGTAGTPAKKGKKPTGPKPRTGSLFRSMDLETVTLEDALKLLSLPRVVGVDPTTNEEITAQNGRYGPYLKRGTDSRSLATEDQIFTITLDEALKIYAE", "test": "X-ray crystallography (3.1 A); no metal ion at active site; ssDNA at both N-terminal and D6-D7 domains; Anisotropy: 50 mM Tris-HCl pH 7.5, 100 mM NaCl, 0.1 mM EDTA, room temperature; crystal: 0.1 M Tris-HCl pH 8.5, 1.5 M lithium sulfate, 16 C, protein:ssDNA 1:2", "conditions": "protein: recombinant; tags: His6-Mocr removed by TEV (N-terminal SNA left); single strand; in crystal two copies pair through 5' regions (12 bp, six non-Watson-Crick pairs/mismatches)"}}}
{"binder": "CAGTGAGCGAGCTTCCGCTTGACATCCCAATA (ssDNA)", "note": "[STS32]", "values": [{"measurement": "Kd", "setting": "MsmTOP1-701t (D1-D5)", "result": 14.9, "unit": "nM"}, {"measurement": "Kd", "setting": "[1]", "result": 0.3, "unit": "nM"}]}
{"binder": "CTTCCGCTTGACAT (ssDNA)", "note": "[MTS3-14]", "values": [{"measurement": "binding result", "setting": "[2]", "result": "binds"}]}
{"binder": "CAGTGAGCGAGCTTCCGCTTGACTT (ssDNA)", "note": "[MTS2-25]", "values": [{"measurement": "binding result", "setting": "MsmTOP1-839t (D1-D7)", "result": "binds"}]}
